Laboratory results taken from paper PMC3626623, “Homo-dimerization and ligand binding by the leucine-rich repeat domain at RHG1/RFS2 underlying resistance to two soybean pathogens” (BMC Plant Biology, 2013).
No end group written: not given here.

Columns and labels:
[1] = biological target: GmRLK18-1 LRR domain expressed in E. coli (soybean (Glycine max)); assay: native gel or EMSA; 12% (w/v) non-denatured PAGE of purified, refolded GmRLK18-1-LRR from E. coli; bands eluted and run again on SDS-PAGE
GmRLK18-1 LRR domain = assay: Far Western analysis of total root proteins probed with the LRR domain; type: binding, Glycine max; details: 2 D gels of total root proteins of SCN inoculated plants, identified by MS/MS; cyclophilin at 10 dai, methionine synthase at 28 dai
Text: For Far-Westerns the LRR domain was used as a probe to filters transferred from 1 or 2 D gels. As the secondary probe, anti-his antibody conjugated to HRP (1–10,000 dilution; Invitrogen, Carlsbad CA) was used. Spots and bands were picked manually and the proteins in them digested with trypsin and identified by direct infusion MS/MS following the methods in [31].

[2] = biological target: GmRLK08-1 LRR domain expressed in E. coli (soybean (Glycine max)); assay: fluorescence polarisation; FITC-labelled peptides in 20 mM phosphate buffer pH 6.9 in a cuvette, 5 nM aliquots, increase in polarisation; baseline of non-CLE and non-LRR peptides subtracted; Kd from double reciprocal Scatchard plots; 3 repeats with 3 protein preparations; apparent for peptide L
[3] = biological target: GmRLK18-1 LRR domain expressed in E. coli (soybean (Glycine max)); assay: as above

Q: How did the stoichiometry N [1] turn out when “GmRLK18-1 LRR domain expressed in E. coli (domain or fragment)” was run?
A: 2

Q: “cyclophilin: soybean root cyclophilin, 182 amino acids, matches gi 17981611, 19,392 d, pI 8.38” was tested. Which “binding to the LRR domain in Far Western (in words)” value (GmRLK18-1 LRR domain) did it give?
A: avidly bound to the LRR

Q: For AHEVPSGPNPISNR (not fully specified (N-terminus); also: labeled with FITC) [CLE peptide T], which Kd [2] is on record?
A: 204 nM

Q: What about the Kd [3] of the same molecule?
A: 20 nM

Q: Which results are given for RLAPEGPDPHHN (not fully specified (N-terminus); also: labeled with FITC) [CLE peptide 30]?
A: Kd [2]: 84 nM; Kd [3]: 44 nM

Q: Which results are given for RAELDFNYMSKRRVPNGPDPIHNRRAGNSGR (not fully specified (N-terminus); also: labeled with FITC) [CLE peptide 36L]?
A: Kd [2]: 51 nM; Kd [3]: 49 nM

Q: For DLPLAPADRLAGGPDPQHNVRAPPRKP (not fully specified (N-terminus); also: labeled with FITC) [CLE peptide 2L], which Kd [2] is on record?
A: 338 nM

Q: What about the Kd [3] of the same molecule?
A: 142 nM

Q: What does the source list for SKRRVPNGPDPIHNR (not fully specified (N-terminus); also: labeled with FITC) [CLE peptide 36]?
A: Kd [2]: 52 nM; Kd [3]: 14 nM

Q: What does the source list for RTVPSGPDPLHH (not fully specified (N-terminus); also: labeled with FITC) [CLE peptide 3]?
A: Kd [2]: 50 nM; Kd [3]: 29 nM

Q: CTLSRLKTLDISNNALNGNLPATLSNLS (not fully specified (N-terminus); also: labeled with FITC) [LRR peptide L of GmRLK18-1] was tested. Which Kd [2] did it give?
A: 135 nM

Q: What about the Kd [3] of the same molecule?
A: 36 nM

Q: With RLAPGGPDPQHN (not fully specified (N-terminus); also: labeled with FITC) [CLE peptide 2] as the molecule, how does the Kd [2] read?
A: 96 nM

Q: And the Kd [3]?
A: 45 nM

Q: How did the Kd [2] turn out when KGLGLHEEELRTVPSGPDPLHHHVNPPRQPR (not fully specified (N-terminus); also: labeled with FITC) [CLE peptide 3L] was run?
A: 142 nM

Q: What about the Kd [3] of the same molecule?
A: 65 nM

Q: What does the source list for KRLSPSGPDPHHH (not fully specified (N-terminus); also: labeled with FITC) [CLE peptide N]?
A: Kd [2]: 78 nM; Kd [3]: 30 nM
